For three substances, Kd, koff and kon results are on record in article PMC4814101.

In experiment [1] the target is Bothropstoxin I (Bothrops jararacussu) (UniProt Q90249). The experiment can be described thus: SPR; Biacore T200; […]; 30 μL/min, 37°C; running buffer 0.1 M phosphate, 27 mM KCl, 1.37 M NaCl, pH 7.4; 1:1 Langmuir model.
In experiment [2] the target is Bothropstoxin II (Bothrops jararacussu) (UniProt P45881). Described as above.

The term Kd denotes the equilibrium constant for the complex coming apart. The term koff denotes the rate constant with which the complex falls apart. As a reminder, the kon is the rate constant with which the complex forms. A high value points to faster complex formation.

Sequence of UniProt Q90249 (Q90249 17-137): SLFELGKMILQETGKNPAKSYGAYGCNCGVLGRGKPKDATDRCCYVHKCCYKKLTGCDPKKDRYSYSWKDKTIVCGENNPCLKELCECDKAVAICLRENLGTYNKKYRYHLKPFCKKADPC
Sequence of UniProt P45881 (P45881 17-138): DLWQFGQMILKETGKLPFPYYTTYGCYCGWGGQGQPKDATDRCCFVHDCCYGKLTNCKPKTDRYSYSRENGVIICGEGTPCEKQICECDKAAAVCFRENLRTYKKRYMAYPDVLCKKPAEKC

Consider VHH KC329718, for which, in experiment [1], the dissociation constant (Kd) came out at 53.9 nM, the koff worked out at 0.0346 s⁻¹ and the kon was 642000 M⁻¹ s⁻¹. In experiment [2], the dissociation constant (Kd) turned out to be 770 nM, the koff turned out to be 0.258 s⁻¹ and the kon is 335000 M⁻¹ s⁻¹.
Regarding VHH KF498607, in experiment [1], the Kd came out at 629 nM, the koff turned out to be 0.162 s⁻¹ and the kon turned out to be 257000 M⁻¹ s⁻¹. Moreover, in experiment [2], the koff was determined as 0.516 s⁻¹ and the kon came out at 184000 M⁻¹ s⁻¹.
In experiment [1], VHH KF498608 registered a Kd of 668 nM, a koff of 0.119 s⁻¹ and a kon of 179000 M⁻¹ s⁻¹. In experiment [2], this substance yielded a Kd of 42.7 nM and a koff of 0.0302 s⁻¹.
